Measurements: the Human Domainome abundance scans (Beltran et al. 2025)

B1: Retinoic acid receptor RXR-alpha, residues 132 to 208; numbered along this chain, P19793 (parent)
chain: KHICAICGDRSSGKHYGVYSCEGCKGFFKRTVRKDLTYTCRDNKDCLIDKRQRNRCQYCRYQKCLAMGMKREAVQEE

Variants of: B1
Experiment: abundance fitness (aPCA) (normalised: wild type 0, dead -1); higher = more abundant; growth selection in yeast, the domain comes from the species named
Conditions: Homo sapiens

Abundance fitness of substitutions, site by site:
V18: R -0.227 | E 0.01 | L -0.141 | S -0.328 | G 0.013 | Y -0.262 | F -0.144 | M -0.147 | H -0.356 | I -0.142
S20: L 0.05 | R -0.571 | A 0.047 | H 0.015 | M -0.027 | E -0.202 | N 0.031 | C 0.049 | G 0.065 | Q 0.012 | Y -0.025 | D -0.276 | V 0.035 | I 0.019 | W 0.045 | P -0.09
G23: C -0.258 | S -0.288 | E -0.039 | L -0.407 | T -0.256 | I -0.407 | A -0.082 | M -0.305 | P -0.126 | N -0.269 | R -0.037 | Q -0.157 | K -0.128 | F -0.424 | D 0.049 | V -0.144 | H -0.089 | W -0.015 | Y -0.312
F28: L -0.316 | D -0.57 | T -0.894 | W -0.024 | I -0.289 | K -1.13 | R -0.917 | C -0.753 | Y -0.13 | P -0.906 | A -0.49 | V -0.321 | H -0.495 | S -0.824 | N -0.653 | E -0.289 | M 0.024
T31: P -0.641 | S -0.02 | F -0.078 | L -0.136 | Q -0.079 | I -0.092 | A -0.03 | Y -0.094 | V -0.003 | H -0.132 | M 0 | W -0.043 | R -0.504 | N -0.114 | C -0.005 | K -0.233 | E -0.188
L36: P -0.067 | A 0.031 | D 0.053 | Q 0.005 | M -0.061 | H 0.014 | E 0.021 | C 0.087 | G 0.022 | K -0.018 | F 0.046 | N -0.024
C24: V -0.917 | M -1.18 | R -0.958 | K -1.15 | A -0.875 | W -1.01 | Y -1.09 | I -0.987 | H -0.971 | S -1 | L -1.01 | D -0.049 | Q -0.891 | P -0.904 | E -0.559 | F -0.889 | G -0.945 | N -1.18
Y16: G 0.015 | W -0.015 | P -0.082 | C -0.013 | M -0.001 | S 0.014 | L -0.035 | K -0.092 | H -0.031 | N -0.089 | E 0.078 | A 0.011 | Q 0.063 | R -0.055 | F 0.06 | V 0.004 | T -0.04 | D 0.046
D35: G -0.028 | Y -0.131 | N -0.164
H15: G -0.056 | C -0.081 | D -0.08 | T -0.24 | Y -0.05 | F -0.064 | W -0.078 | A -0.13 | K -0.138 | M -0.234 | E -0.065 | I -0.181 | S -0.196 | P -0.034 | V -0.098 | R -0.039 | L -0.138 | Q -0.007
K14: P -0.004 | N -0.028 | Q 0 | E -0.034 | R -0.115 | H -0.414 | Y -0.218 | A -0.027 | S -0.04 | M 0.001 | T -0.039 | F 0.017 | I -0.112 | C -0.027 | W -0.013 | V -0.057 | D 0.018 | L -0.094 | G -0.004
